From patent US20060002932A1, “Methods and compositions for enhancement of immunity by in vivo depletion of immunosuppressive cell activity” (priority 2004, published 2006)
Entries after “also recorded” stand apart in the source; their conditions may differ.

Tests used:
[1] = tested on: antigen-specific CTL from PBMC; test: 51Cr cytotoxicity assay of CTL stimulated from DAB389IL-2-depleted PBMC; assay type: cell-based, human
PBMC = test: MTT viability of PBMC (bystander toxicity); conditions: DAB389IL-2 5 nM
[2] = tested on: CD4^+CD25^high regulatory T cells; test: MTT cytotoxicity assay on isolated regulatory T cells; assay type: cell-based, human
Method: […] The formazan crystals were solubilized by adding 100 μL isopropanol/0.1 M hydrochloric acid and incubating at 37° C. for 2 hours. The absorbance of the formazan product was measured on an enzyme-linked immunosorbent assay (ELISA) plate reader at 570 nm.
Interferon-γ and IL-4 ELISPOT analyses were performed using PBMC obtained prior to, during, and after vaccination. PBMC were cultured overnight in complete RPMI 1640 medium. CD4^+ and CD8^+ T cells were isolated from PBMC by negative depletion (Miltenyi). After blocking, 1×10^5 T cells and 1×10^4 RNA-transfected DC were added to each well of 96-well nitrocellulose plates (Multiscreen-IP, Millipore) precoated with 2 μg/ml Interferon-γ capture antibody (Endogen) or with IL-4 capture antibody (BD Biosciences Pharmingen). Plates were incubated for 20 hours at 37° C., and biotinylated Interferon-γ detection antibody (Endogen) or biotinylated IL-4 antibody (BD Biosciences Pharmingen) was added to each well. Cells were then incubated for an additional two hours at room temperature, then with streptavidin-alkaline phosphatase (1 μg/ml; Sigma) and plates were developed with substrate (Kirkegaard & Perry Laboratories). After washing, spots were counted using an automated ELISPOT reader (Carl Zeiss). CTL assays were performed by coculturing RNA-transfected DC with autologous PBMC. Cells were restimulated once and IL-2 (20 units/ml) was added after five days and every other day thereafter. After 12 days of culture, effector cells were harvested. Target cells were labeled with 100 μCi of Na2[^51CrO4] (NEN) in 200 μl of complete RPMI 1640 for one hour at 37° C. in 5% CO2 and ^51Cr-labeled target cells were incubated in complete RPMI 1640 medium with effector cells for five hours at 37° C. Then, 50 μl of supernatant was harvested, and release of ^51Cr was measured with a scintillation counter. For proliferation assays, purified CD3^+ T cells were seeded into round-bottomed microplates in the presence of mRNA-transfected DC. […] Incorporation of thymidine was determined using a liquid scintillation counter.

[3] = tested on: CD3+, CD4+, CD8^+ T cells, B cells, monocytes/macrophages, NK cells; test: Relative numbers of leukocyte subsets before and after DAB389IL-2; assay type: in vivo, human
Method: Using these methods, the degree of regulatory T cell depletion efficacy in the four subjects treated on the clinical protocol was determined.

[4] = Clinical toxicity in cancer patients; assay type: in vivo, human
Method: All subjects received a total of three intradermal injections of total tumor RNA-transfected DC. The injections were given intradermally at biweekly intervals and consisted of 1×10^7 cells suspended in 200 μL 0.9% sodium chloride (Abbott Laboratories, Abbott Park, Ill.) at each vaccination cycle. Following treatment, subjects were evaluated for toxicity, immunological and clinical response to therapy. Follow-up visits occurred biweekly for three visits, monthly for one visit, then every 3 months or until the subject was removed from the study.
Having shown that regulatory T cell elimination is capable of enhancing T-cell responses in vitro, a clinical study was initiated to analyze the efficacy of this strategy to a) eliminate regulatory T cells and b) to enhance a vaccine-induced T-cell response in end-stage cancer patients. Seven patients with metastatic renal cell (RCC), and one subject with disseminated ovarian carcinoma (OVA) were treated in an institutional review board (IRB) and Food and Drug Administration (FDA)-approved pilot study. […] PBMCs were also obtained from a subject who received DAB389IL-2 only under separate informed consent.
Treatment of patients was performed following written informed consent as part of an Institutional Review Board- and Federal Drug Administration-approved protocol. Patients with histologically-confirmed metastatic RCC were eligible for this study. One patient with disseminated ovarian carcinoma was included and treated on a compassionate basis. All patients were required to have adequate hepatic, renal, and neurological function, a life expectancy of >6 months, and a Karnofsky performance status of >70%. Patients must have had recovered from all toxicities related to any prior therapy and have not received any chemotherapy, radiation therapy, or immunotherapy for at least 6 weeks prior to study entry. Excluded from the study were patients with CNS metastases, with a history of autoimmune disease, with serious intercurrent chronic or acute illnesses. Patients on immunosuppressive agents were also excluded. […] All subjects received 3 intradermal injections of tumor RNA-transfected DC. The injections were given intradermally at biweekly intervals and consisted of 1×10^7 cells suspended in 200 μL 0.9% sodium chloride at each vaccination. Following treatment, subjects were evaluated for clinical toxicity, immunological and clinical responses. Due to regulatory restrictions and, in some subjects, limited access to tumor tissue, no tumor biopsies were performed.
Having shown that Treg elimination is capable of enhancing T-cell responses in vitro, a clinical study was initiated to test the Treg depletion concept in a human vaccination setting. Eleven patients including 10 with metastatic RCC and one with disseminated ovarian carcinoma (OVA) were treated in an Institutional Review Board (IRB) and Food and Drug Administration (FDA)-approved study.

[5] = 6-hour exposure, viability over 48 hours

Q: Which “improvement of antigen-specific killing” value ([1]; MART-1 peptide-pulsed DC as stimulators, DAB389IL-2 5 nM) does the source give for denileukin diftitox [DAB389IL-2] here?
A: only modest, statistically insignificant improvement of antigen-specific killing

Q: What about the “lytic activity of CTL stimulated from Treg-depleted vs non-depleted PBMC” value ([1]; mRNA-transfected DC stimulators (hTERT, MART-1)) of the same substance?
A: higher lytic activity against their cognate targets; also recorded: significantly higher lytic activity

Q: What about the “improvement of CTL responses” value ([1]; recall antigen fluM1, or peptide-loaded DC as stimulators) of the same substance?
A: ineffective in improving CTL responses

Q: And the “PBMC viability over time” value (PBMC)?
A: no significant differences in PBMC viability

Q: And the “concentration giving complete depletion of CD4^+CD25^high cells” value [2, 5]?
A: 5 nM

Q: What about the “concentration giving efficient killing of CD4^+CD25^high cells” value [2, 5] of the same substance?
A: 0.5 nM

Q: And the “cell viability of CD4^+CD25^high regulatory T cells” value ([2]; 24 hours following exposure)?
A: significant reduction in cell viability

Q: And the “change in CD8^+/CD25^+ or CD19^+/CD25^+ cells” value ([3]; one subject analyzed)?
A: no decrease

Q: What about the “change in relative number of CD3+, CD4+, CD8+ T cells, B cells, monocytes/macrophages and NK cells” value ([3]; prior to and after treatment) of the same substance?
A: no significant changes

Q: What about the “reduction in absolute neutrophil counts (ANC)” value ([4]; average, 5 of 6 evaluable subjects) of the same substance?
A: 10%

Q: What about the “decrease in absolute neutrophil counts (ANC)” value ([4]; one subject) of the same substance?
A: 20%

Q: What about the ALT elevations ([4]; single i.v. dose 18 μg/kg) of the same substance?
A: transient, grade II ALT elevations in one subject; also recorded: transient grade II serum alanine aminotransferase (ALT) elevations (n=1)

Q: What about the constitutional symptoms ([4]; single i.v. dose 18 μg/kg) of the same substance?
A: Grade I constitutional symptoms in two subjects; also recorded: grade I constitutional symptoms such as low-grade fever and malaise (n=4)

Q: And the serum rheumatoid factor ([4]; single i.v. dose 18 μg/kg)?
A: grade I elevation of serum rheumatoid factor (n=1)
